This passage reports stoichiometry N (peptide per M^pro dimer) results from paper PMC11535432.

In the experiment the target is inactive mutant of SARS-CoV-2 main protease M^pro (His41Ala, Cys145Ala) (SARS-CoV-2). The experiment can be described thus: native MS.

Substance “substrate peptide nsp5/6 (11-mer, P6 to P5') (from UniProt P0DTD1 3564-3574)” displayed a stoichiometry N (peptide per M^pro dimer) of under 2.

“substrate peptide nsp14/15 (11-mer, P6 to P5') (from UniProt P0DTD1 6447-6457)” returned a stoichiometry N (peptide per M^pro dimer) of under 2.
